# B1: GRIN2A, Q12879 (peptide)
# chain: KKMPSIESDV
# B2: CLDN14, O95500 (peptide)
# chain: HSGYRLNDYV
# B3: TGFA, P01135 (peptide)
# chain: TACCHSETVV
# B4: RSRC2, Q7L4I2 (peptide)
# chain: TSSMRGMDAV
# B5: GPRC6A, Q5T6X5 (peptide)
# chain: TLPRKRMSSI
# Biological target: T1, APBA2_2, Q99767
# T1 sequence (Q99767 654-744, limits assumed, looked up): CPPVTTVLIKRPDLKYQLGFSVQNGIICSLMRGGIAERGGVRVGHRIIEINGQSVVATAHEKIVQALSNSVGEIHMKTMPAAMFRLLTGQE
# Assay: holdup assay
# Set-up: key: below the threshold = too weak to quantify, mostly under pKd 3.1 to 4
# Details: plain residues with an end cap or a label only (N-terminal biotin on a linker: ado-ado)
row,Binder,pKd
1,B1,below the threshold
2,B2,below the threshold
3,B3,below the threshold
4,B4,below the threshold
5,B5,below the threshold

# Biological target: T2, ARHGAP21, Q5T5U3
# T2 sequence (Q5T5U3 45-169, limits assumed, looked up): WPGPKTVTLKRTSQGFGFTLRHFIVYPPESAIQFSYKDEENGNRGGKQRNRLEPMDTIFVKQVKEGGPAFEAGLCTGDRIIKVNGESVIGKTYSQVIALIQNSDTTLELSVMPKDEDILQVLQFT
# Assay: holdup assay
# Set-up: key: below the threshold = too weak to quantify, mostly under pKd 3.1 to 4
# Details: plain residues with an end cap or a label only (N-terminal biotin on a linker: ado-ado)
row,Binder,pKd
1,B1,below the threshold
2,B2,3.95
3,B3,4.08
4,B4,below the threshold
5,B5,below the threshold

# Biological target: T3, CARD11, Q9BXL7
# T3 sequence (Q9BXL7 662-765, limits assumed, looked up): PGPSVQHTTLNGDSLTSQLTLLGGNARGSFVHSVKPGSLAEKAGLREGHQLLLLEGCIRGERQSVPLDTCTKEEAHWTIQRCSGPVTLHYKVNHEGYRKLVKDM
# Assay: holdup assay
# Set-up: key: below the threshold = too weak to quantify, mostly under pKd 3.1 to 4
# Details: plain residues with an end cap or a label only (N-terminal biotin on a linker: ado-ado)
row,Binder,pKd
1,B1,below the threshold
2,B2,below the threshold
3,B3,below the threshold
4,B4,below the threshold
5,B5,below the threshold

# Biological target: T4, DFNB31_1, Q9P202
# T4 sequence (Q9P202 135-233, limits assumed, looked up): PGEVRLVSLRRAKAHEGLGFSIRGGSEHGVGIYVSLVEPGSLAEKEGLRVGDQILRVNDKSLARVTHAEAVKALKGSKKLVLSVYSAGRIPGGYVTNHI
# Assay: holdup assay
# Set-up: key: below the threshold = too weak to quantify, mostly under pKd 3.1 to 4
# Details: plain residues with an end cap or a label only (N-terminal biotin on a linker: ado-ado)
row,Binder,pKd
1,B1,below the threshold
2,B2,below the threshold
3,B3,4.02
4,B4,below the threshold
5,B5,3.59

# Biological target: T5, DFNB31_2, Q9P202
# T5 sequence (Q9P202 274-371, limits assumed, looked up): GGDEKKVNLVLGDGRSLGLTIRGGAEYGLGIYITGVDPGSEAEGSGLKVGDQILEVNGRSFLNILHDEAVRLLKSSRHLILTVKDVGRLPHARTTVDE
# Assay: holdup assay
# Set-up: key: below the threshold = too weak to quantify, mostly under pKd 3.1 to 4
# Details: plain residues with an end cap or a label only (N-terminal biotin on a linker: ado-ado)
row,Binder,pKd
1,B1,below the threshold
2,B2,below the threshold
3,B3,below the threshold
4,B4,below the threshold
5,B5,below the threshold

# Biological target: T6, DFNB31_3, Q9P202
# T6 sequence (Q9P202 811-907, limits assumed, looked up): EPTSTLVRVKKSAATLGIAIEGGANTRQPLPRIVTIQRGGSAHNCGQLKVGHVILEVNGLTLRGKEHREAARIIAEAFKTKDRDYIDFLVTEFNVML
# Assay: holdup assay
# Set-up: key: below the threshold = too weak to quantify, mostly under pKd 3.1 to 4
# Details: plain residues with an end cap or a label only (N-terminal biotin on a linker: ado-ado)
row,Binder,pKd
1,B1,below the threshold
2,B2,below the threshold
3,B3,below the threshold
4,B4,below the threshold
5,B5,below the threshold

# Biological target: FRMPD4, Q14CM0
# Assay: holdup assay
# Set-up: key: below the threshold = too weak to quantify, mostly under pKd 3.1 to 4
# Details: plain residues with an end cap or a label only (N-terminal biotin on a linker: ado-ado)
# Chain of FRMPD4, Q14CM0 (Q14CM0 67-160): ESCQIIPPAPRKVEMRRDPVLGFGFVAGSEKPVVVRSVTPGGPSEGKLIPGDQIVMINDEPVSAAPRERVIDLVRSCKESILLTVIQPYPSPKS
row,Binder,pKd
1,B1,below the threshold
2,B2,3.58
3,B3,below the threshold
4,B4,below the threshold
5,B5,below the threshold

# Biological target: GIPC2, Q8TF65
# Assay: holdup assay
# Set-up: key: below the threshold = too weak to quantify, mostly under pKd 3.1 to 4
# Details: plain residues with an end cap or a label only (N-terminal biotin on a linker: ado-ado)
# Chain of GIPC2, Q8TF65 (Q8TF65 112-203): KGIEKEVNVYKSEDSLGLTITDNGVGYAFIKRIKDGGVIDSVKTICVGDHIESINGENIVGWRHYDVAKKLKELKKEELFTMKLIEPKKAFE
row,Binder,pKd
1,B1,3.84
2,B2,below the threshold
3,B3,below the threshold
4,B4,below the threshold
5,B5,below the threshold

# Biological target: T7, HTRA3, P83110
# T7 sequence (P83110 354-453, limits assumed, looked up): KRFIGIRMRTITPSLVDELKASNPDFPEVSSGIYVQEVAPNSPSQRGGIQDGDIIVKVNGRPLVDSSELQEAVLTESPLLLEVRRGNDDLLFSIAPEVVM
# Assay: holdup assay
# Set-up: key: below the threshold = too weak to quantify, mostly under pKd 3.1 to 4
# Details: plain residues with an end cap or a label only (N-terminal biotin on a linker: ado-ado)
row,Binder,pKd
1,B1,below the threshold
2,B2,4.55
3,B3,below the threshold
4,B4,below the threshold
5,B5,below the threshold

# Biological target: IL16_3, Q14005
# Assay: holdup assay
# Set-up: key: below the threshold = too weak to quantify, mostly under pKd 3.1 to 4
# Details: plain residues with an end cap or a label only (N-terminal biotin on a linker: ado-ado)
# Chain of IL16_3, Q14005 (Q14005 1107-1207): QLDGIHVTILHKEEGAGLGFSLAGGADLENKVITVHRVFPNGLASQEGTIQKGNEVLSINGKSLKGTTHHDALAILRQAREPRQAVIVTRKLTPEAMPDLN
row,Binder,pKd
1,B1,below the threshold
2,B2,below the threshold
3,B3,below the threshold
4,B4,below the threshold
5,B5,below the threshold

# Biological target: Inadl_10, Q8NI35
# Assay: holdup assay
# Set-up: key: below the threshold = too weak to quantify, mostly under pKd 3.1 to 4
# Details: plain residues with an end cap or a label only (N-terminal biotin on a linker: ado-ado)
# Chain of Inadl_10, Q8NI35 (Q8NI35 1673-1763): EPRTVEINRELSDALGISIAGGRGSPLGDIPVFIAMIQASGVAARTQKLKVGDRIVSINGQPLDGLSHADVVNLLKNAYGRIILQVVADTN
row,Binder,pKd
1,B1,below the threshold
2,B2,below the threshold
3,B3,below the threshold
4,B4,below the threshold
5,B5,below the threshold

# Biological target: Inadl_4, Q8NI35
# Assay: holdup assay
# Set-up: key: below the threshold = too weak to quantify, mostly under pKd 3.1 to 4
# Details: plain residues with an end cap or a label only (N-terminal biotin on a linker: ado-ado)
# Chain of Inadl_4, Q8NI35 (Q8NI35 547-651): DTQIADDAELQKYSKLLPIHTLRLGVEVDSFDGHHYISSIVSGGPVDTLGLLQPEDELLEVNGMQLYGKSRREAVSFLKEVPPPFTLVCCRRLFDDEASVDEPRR
row,Binder,pKd
1,B1,below the threshold
2,B2,below the threshold
3,B3,below the threshold
4,B4,below the threshold
5,B5,below the threshold

# Biological target: T8, LNX2_2, Q8N448
# T8 sequence (Q8N448 334-432, limits assumed, looked up): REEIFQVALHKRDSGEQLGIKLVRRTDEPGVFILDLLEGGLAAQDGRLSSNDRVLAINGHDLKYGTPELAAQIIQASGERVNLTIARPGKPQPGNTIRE
# Assay: holdup assay
# Set-up: key: below the threshold = too weak to quantify, mostly under pKd 3.1 to 4
# Details: plain residues with an end cap or a label only (N-terminal biotin on a linker: ado-ado)
row,Binder,pKd
1,B1,below the threshold
2,B2,4.56
3,B3,5.21
4,B4,below the threshold
5,B5,below the threshold

# Biological target: MAGI2_6, Q86UL8
# Assay: holdup assay
# Set-up: key: below the threshold = too weak to quantify, mostly under pKd 3.1 to 4
# Details: plain residues with an end cap or a label only (N-terminal biotin on a linker: ado-ado)
# Chain of MAGI2_6, Q86UL8 (Q86UL8 1141-1229): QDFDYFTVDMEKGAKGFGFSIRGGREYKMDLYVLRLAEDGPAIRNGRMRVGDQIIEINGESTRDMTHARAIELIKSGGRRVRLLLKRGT
row,Binder,pKd
1,B1,4.91
2,B2,4.12
3,B3,3.81
4,B4,below the threshold
5,B5,below the threshold

# Biological target: T9, MPDZ_12, O75970
# T9 sequence (O75970 1857-1958, limits assumed, looked up): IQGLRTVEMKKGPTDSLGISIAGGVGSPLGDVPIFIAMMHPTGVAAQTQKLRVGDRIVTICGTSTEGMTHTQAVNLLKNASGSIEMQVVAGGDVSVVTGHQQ
# Assay: holdup assay
# Set-up: key: below the threshold = too weak to quantify, mostly under pKd 3.1 to 4
# Details: plain residues with an end cap or a label only (N-terminal biotin on a linker: ado-ado)
row,Binder,pKd
1,B1,below the threshold
2,B2,below the threshold
3,B3,below the threshold
4,B4,below the threshold
5,B5,below the threshold

# Biological target: NHERF4_2, Q86UT5
# Assay: holdup assay
# Set-up: key: below the threshold = too weak to quantify, mostly under pKd 3.1 to 4
# Details: plain residues with an end cap or a label only (N-terminal biotin on a linker: ado-ado)
# Chain of NHERF4_2, Q86UT5 (Q86UT5 220-308): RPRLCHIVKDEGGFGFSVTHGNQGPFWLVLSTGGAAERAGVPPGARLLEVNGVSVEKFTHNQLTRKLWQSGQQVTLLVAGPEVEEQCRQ
row,Binder,pKd
1,B1,below the threshold
2,B2,below the threshold
3,B3,below the threshold
4,B4,below the threshold
5,B5,below the threshold

# Biological target: NOS1, P29475
# Assay: holdup assay
# Set-up: key: below the threshold = too weak to quantify, mostly under pKd 3.1 to 4
# Details: plain residues with an end cap or a label only (N-terminal biotin on a linker: ado-ado)
# Chain of NOS1, P29475 (P29475 9-101): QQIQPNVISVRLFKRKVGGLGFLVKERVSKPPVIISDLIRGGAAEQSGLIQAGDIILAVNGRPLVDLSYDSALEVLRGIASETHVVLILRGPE
row,Binder,pKd
1,B1,below the threshold
2,B2,4.21
3,B3,below the threshold
4,B4,4.38
5,B5,below the threshold

# Biological target: PICK1, Q9NRD5
# Assay: holdup assay
# Set-up: key: below the threshold = too weak to quantify, mostly under pKd 3.1 to 4
# Details: plain residues with an end cap or a label only (N-terminal biotin on a linker: ado-ado)
# Chain of PICK1, Q9NRD5 (Q9NRD5 17-115): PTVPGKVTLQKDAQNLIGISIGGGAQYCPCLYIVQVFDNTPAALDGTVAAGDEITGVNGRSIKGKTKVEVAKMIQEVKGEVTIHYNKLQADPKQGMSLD
row,Binder,pKd
1,B1,below the threshold
2,B2,4.13
3,B3,below the threshold
4,B4,below the threshold
5,B5,4.13

# Biological target: PTPN3, P26045
# Assay: holdup assay
# Set-up: key: below the threshold = too weak to quantify, mostly under pKd 3.1 to 4
# Details: plain residues with an end cap or a label only (N-terminal biotin on a linker: ado-ado)
# Chain of PTPN3, P26045 (P26045 505-587): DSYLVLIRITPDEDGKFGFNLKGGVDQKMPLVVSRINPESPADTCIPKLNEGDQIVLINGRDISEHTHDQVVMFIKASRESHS
row,Binder,pKd
1,B1,4.44
2,B2,below the threshold
3,B3,4.41
4,B4,3.67
5,B5,4.11

# Biological target: T10, RAPGEF6, Q8TEU7
# T10 sequence (Q8TEU7 525-625, limits assumed, looked up): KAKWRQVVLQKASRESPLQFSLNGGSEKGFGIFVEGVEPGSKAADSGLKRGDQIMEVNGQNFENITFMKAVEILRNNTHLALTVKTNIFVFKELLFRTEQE
# Assay: holdup assay
# Set-up: key: below the threshold = too weak to quantify, mostly under pKd 3.1 to 4
# Details: plain residues with an end cap or a label only (N-terminal biotin on a linker: ado-ado)
row,Binder,pKd
1,B1,below the threshold
2,B2,below the threshold
3,B3,below the threshold
4,B4,below the threshold
5,B5,below the threshold

# Biological target: SCRIB_1, Q14160
# Assay: holdup assay
# Set-up: key: below the threshold = too weak to quantify, mostly under pKd 3.1 to 4
# Details: plain residues with an end cap or a label only (N-terminal biotin on a linker: ado-ado)
# Chain of SCRIB_1, Q14160 (Q14160 718-814): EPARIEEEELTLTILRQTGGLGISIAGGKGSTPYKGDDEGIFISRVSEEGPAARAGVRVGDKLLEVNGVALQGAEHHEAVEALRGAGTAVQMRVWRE
row,Binder,pKd
1,B1,4.34
2,B2,below the threshold
3,B3,4.3
4,B4,below the threshold
5,B5,below the threshold

# Biological target: T11, SNTB1, Q13884
# T11 sequence (Q13884 107-205, limits assumed, looked up): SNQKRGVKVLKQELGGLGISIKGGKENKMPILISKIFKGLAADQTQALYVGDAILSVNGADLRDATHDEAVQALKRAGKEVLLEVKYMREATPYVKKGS
# Assay: holdup assay
# Set-up: key: below the threshold = too weak to quantify, mostly under pKd 3.1 to 4
# Details: plain residues with an end cap or a label only (N-terminal biotin on a linker: ado-ado)
row,Binder,pKd
1,B1,4.69
2,B2,3.54
3,B3,4.95
4,B4,below the threshold
5,B5,below the threshold

# Biological target: T12, SNTG1, Q9NSN8
# T12 sequence (Q9NSN8 52-150, limits assumed, looked up): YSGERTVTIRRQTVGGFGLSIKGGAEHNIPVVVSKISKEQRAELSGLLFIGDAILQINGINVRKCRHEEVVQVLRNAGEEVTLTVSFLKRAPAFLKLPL
# Assay: holdup assay
# Set-up: key: below the threshold = too weak to quantify, mostly under pKd 3.1 to 4
# Details: plain residues with an end cap or a label only (N-terminal biotin on a linker: ado-ado)
row,Binder,pKd
1,B1,4.89
2,B2,below the threshold
3,B3,4.43
4,B4,below the threshold
5,B5,below the threshold

# Biological target: SNX27, Q96L92
# Assay: holdup assay
# Set-up: key: below the threshold = too weak to quantify, mostly under pKd 3.1 to 4
# Details: plain residues with an end cap or a label only (N-terminal biotin on a linker: ado-ado)
row,Binder,pKd
1,B1,3.64
2,B2,3.72
3,B3,5.6
4,B4,below the threshold
5,B5,below the threshold

# Biological target: T13, TJP3_3, O95049
# T13 sequence (O95049 375-456, limits assumed, looked up): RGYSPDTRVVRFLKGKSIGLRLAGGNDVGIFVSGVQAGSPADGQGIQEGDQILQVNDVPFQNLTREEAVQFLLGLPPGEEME
# Assay: holdup assay
# Set-up: key: below the threshold = too weak to quantify, mostly under pKd 3.1 to 4
# Details: plain residues with an end cap or a label only (N-terminal biotin on a linker: ado-ado)
row,Binder,pKd
1,B1,below the threshold
2,B2,4.28
3,B3,below the threshold
4,B4,below the threshold
5,B5,below the threshold

# — paper PMC9482650, “Quantitative fragmentomics allow affinity mapping of interactomes” (Nature Communications, 2022)
